Measured values from IntAct's records for PubMed 17408621.

Molecular target: ccnb2_human CCNB2 (UniProt O95067)
Chain of UniProt O95067 (O95067 whole entry): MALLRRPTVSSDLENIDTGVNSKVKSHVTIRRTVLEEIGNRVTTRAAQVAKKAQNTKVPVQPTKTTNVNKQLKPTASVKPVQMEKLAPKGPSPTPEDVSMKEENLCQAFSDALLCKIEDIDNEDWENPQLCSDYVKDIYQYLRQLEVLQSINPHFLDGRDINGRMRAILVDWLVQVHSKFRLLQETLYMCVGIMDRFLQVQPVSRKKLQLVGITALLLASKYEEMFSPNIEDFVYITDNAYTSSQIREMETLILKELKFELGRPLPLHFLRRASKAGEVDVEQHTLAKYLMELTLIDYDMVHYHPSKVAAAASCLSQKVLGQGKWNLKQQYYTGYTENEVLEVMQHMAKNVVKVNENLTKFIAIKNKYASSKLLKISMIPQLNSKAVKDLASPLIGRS

Substance: Filamin-A (Homo sapiens), P21333 S1436G
- effect of a mutation on the interaction: disrupting interaction
